Assay results taken from patent US7528106B2, “Compositions and methods for treatment of neovascular diseases” (The Scripps Research Institute, priority 2004, dated 2009).

System: deep retinal vascular network formation in neonatal Balb/C mice
Assay: Neonatal mouse retinal angiogenesis model
Assay type: in vivo
Settings: for % of eyes with 75-100% inhibition of deep vascular layer / % of eyes with 0-10% inhibition of deep vascular layer / % of eyes with 10-25% inhibition of deep vascular layer / % of eyes with 25-50% inhibition of deep vascular layer / % of eyes with 50-75% inhibition of deep vascular layer: intravitreal P4, read P12
From the text: Description of the Model. Immediately after birth (postnatal day zero; “P0”), retinal vasculature is virtually absent in the mouse. By four weeks after birth (P28) the retina has attained an adult pattern of retinal vessels coincident with the onset of vision. Physiological neovascularization of the retina occurs during this period via a stereotypical, biphasic developmental pattern of angiogenesis. During the primary phase of retinal vascular development, spoke-like peripapillary vessels grow radially from the central retinal artery and vein, becoming progressively interconnected by a capillary plexus that forms between them. This “inner retinal plexus” grows in area, volume and complexity, centrifugally, as a monolayer within the nerve fiber layer during the first seven to ten days following birth.
The second phase of retinal vessel formation begins between postnatal days 7 (P7) and 10 (P10) when collateral branches sprout from capillaries of the superficial plexus and penetrate into the retina where their tips branch and anastamose laterally to form a planar “deep vascular plexus”. While the deep vascular plexus is in place by P14, it undergoes extensive remodeling from P14 to P21. It is of interest to note that the formation of these vascular networks in the neonatal mouse are strikingly similar to the events occurring in the third trimester human fetus.
Advantages and Quantification of the Model. The reproducibility of the murine retinal development process and its easy accessibility in neonatal animals provide an opportunity to assess the efficacy of antiangiogenic compounds in a physiologically relevant model of angiogenesis. Additional advantages of the neonatal mouse model are the ability to qualitatively and quantitatively evaluate the angiostatic effect of putative antagonists of angiogenesis. Angiostatic activity was evaluated based upon the degree of angiogenesis in the deep, outer retinal vascular layer (secondary layer) that develops between P8 and P12. The appearance of the inner blood vessel network (primary layer) was evaluated for normal development and signs of toxicity.
Preparation of Compositions. Peptidomimetic integrin signaling inhibitor Compound (1) is solubilized in PBS at a concentration of about 20 mg/ml in PBS (1× concentration). T2-TrpRS is solubilized in PBS at a concentration of about 0.5 mg/ml (1× concentration). VEGF aptamer (pegaptanib sodium; Compound (2)) is solubilized in PBS at a concentration of about 2 mg/ml (1× concentration) to achieve an injection of approximately 1 μg/eye at 1× concentration. For all combination assays the compounds were prepared at 2 or 3 times the 1× concentration of each material and then combined to produce a final solution containing each individual compound at the same concentration as was used alone (e.g., 1×, 0.5×, 0.25× or 0.1×, as the case may be). For all assays, a single injection of 0.5 μl of PBS solutions of the drugs was administered intravitreally regardless of the number of compounds being injected. As used herein, the term “0.1×” refers to one tenth of the 1× concentration of a given material, “0.25×” refers to one quarter of the 1× concentration of a given material, “0.5×” refers to one half of the 1× concentration of a given material, and so forth for similar designations.
An in vivo angiogenesis assay in the neonatal mouse (Balb/C, The Jackson Laboratory, Bar Harbor, Me.) was used to evaluate the angiostatic activity of integrin signaling inhibitor Compound (1), T2-TrpRS, and VEGF aptamer Compound (2). Intravitreous injection and retina isolation was performed with a dissecting microscope (SMZ 645, Nikon, Japan). […] The samples (0.5 μl) were injected with a Hamilton syringe fitted with a 32-gauge needle (Hamilton Company, Reno, Nev.). The injection was made between the equator and the corneal limbus. During injection, the location of the needle tip was monitored by direct visualization to determine that it was in the vitreal cavity. […]

[1] = Table 12, composite data from the Examples, 1× (Compound (2) 0.5× to 1×)
[2] = Table 13A, 0.25 μg per eye, intravitreal P7, read P12
[3] = Table 13C low dosing, 0.1x (integrin ant. 1.0 μg, VEGF apt. 0.20 μg, T2-TrpRS 0.025 μg)

B1: T2-TrpRS: 43 kDa angiostatic T2 fragment of human tryptophanyl-tRNA synthetase, SEQ ID NO: 1 (protein)
chain: MSAKGIDYDKLIVRFGSSKIDKELINRIERATGQRPHHFLRRGIFFSHRDMNQVLDAYENKKPFYLYTGRGPSSEAMHVGHLIPFIFTKWLQDVFNVPLVIQMTDDEKYLWKDLTLDQAYSYAVENAKDIIACGFDINKTFIFSDLDYMGMSSGFYKNVVKIQKHVTFNQVKGIFGFTDSDCIGKISFPAIQAAPSFSNSFPQIFRDRTDIQCLIPCAIDQDPYFRMTRDVAPRIGYPKPALLHSTFFPALQGAQTKMSASDPNSSIFLTDTAKQIKTKVNKHAFSGGRDTIEEHRQFGGNCDVDVSFMYLTFFLEDDDKLEQIRKDYTSGAMLTGELKKALIEVLQPLIAEHQARRKEVTDEIVKEFMTPRKLSFDFQ
modifications: homo sapiens
Ex 10, 0.3× (1×=0.5 mg/ml)
  % of eyes with 75-100% inhibition of deep vascular layer: 25%
Ex 10, 1× (0.5 mg/ml)
  % of eyes with 0-10% inhibition of deep vascular layer: 8.3%
  % of eyes with 10-25% inhibition of deep vascular layer: 16.7%
  % of eyes with 25-50% inhibition of deep vascular layer: 25%
  % of eyes with 50-75% inhibition of deep vascular layer: 8.7%
  % of eyes with 75-100% inhibition of deep vascular layer: 41.7%
Ex 10, 2× (1×=0.5 mg/ml)
  % of eyes with 0-10% inhibition of deep vascular layer: 8.3%
  % of eyes with 10-25% inhibition of deep vascular layer: 25%
  % of eyes with 25-50% inhibition of deep vascular layer: 0%
  % of eyes with 50-75% inhibition of deep vascular layer: 16.7%
  % of eyes with 75-100% inhibition of deep vascular layer: 41.7%
Ex 10, 3× (1×=0.5 mg/ml)
  % of eyes with 0-10% inhibition of deep vascular layer: 66.7%
  % of eyes with 10-25% inhibition of deep vascular layer: 25%
  % of eyes with 25-50% inhibition of deep vascular layer: 8.7%
  % of eyes with 50-75% inhibition of deep vascular layer: 0%
  % of eyes with 75-100% inhibition of deep vascular layer: 0%
Ex 11, 0.3× (1×=0.5 mg/ml)
  % of eyes with 0-10% inhibition of deep vascular layer: 33.3%
  % of eyes with 10-25% inhibition of deep vascular layer: 16.7%
  % of eyes with 25-50% inhibition of deep vascular layer: 0%
  % of eyes with 50-75% inhibition of deep vascular layer: 0%
  % of eyes with 75-100% inhibition of deep vascular layer: 50%
Ex 11, 1× (0.5 mg/ml)
  % of eyes with 0-10% inhibition of deep vascular layer: 14.3%
  % of eyes with 10-25% inhibition of deep vascular layer: 14.3%
  % of eyes with 25-50% inhibition of deep vascular layer: 7.1%
  % of eyes with 50-75% inhibition of deep vascular layer: 14.3%
  % of eyes with 75-100% inhibition of deep vascular layer: 50%
Ex 11, 2× (1×=0.5 mg/ml)
  % of eyes with 0-10% inhibition of deep vascular layer: 12.5%
  % of eyes with 10-25% inhibition of deep vascular layer: 12.5%
  % of eyes with 25-50% inhibition of deep vascular layer: 12.5%
  % of eyes with 50-75% inhibition of deep vascular layer: 12.5%
  % of eyes with 75-100% inhibition of deep vascular layer: 50%
Ex 11, 3× (1×=0.5 mg/ml)
  % of eyes with 0-10% inhibition of deep vascular layer: 14.3%
  % of eyes with 10-25% inhibition of deep vascular layer: 14.3%
  % of eyes with 25-50% inhibition of deep vascular layer: 14.3%
  % of eyes with 50-75% inhibition of deep vascular layer: 28.5%
  % of eyes with 75-100% inhibition of deep vascular layer: 28.5%
Ex 11, 5× (1×=0.5 mg/ml)
  % of eyes with 0-10% inhibition of deep vascular layer: 16.6%
  % of eyes with 10-25% inhibition of deep vascular layer: 33.3%
  % of eyes with 25-50% inhibition of deep vascular layer: 33.3%
  % of eyes with 50-75% inhibition of deep vascular layer: 16.6%
  % of eyes with 75-100% inhibition of deep vascular layer: 0%
Examples 10 and 11, 0.1× to 5×
  mice having 75-100% inhibition in the deep vascular layer, maximum over doses: ≤ 50%
[1]
  % of mice with 0-10% inhibition of deep vascular layer: 23.9%
  % of mice with 10-25% inhibition of deep vascular layer: 17.4%
  % of mice with 25-50% inhibition of deep vascular layer: 15.2%
  % of mice with 50-75% inhibition of deep vascular layer: 8.7%
  % of mice with 75-100% inhibition of deep vascular layer: 34.8%
  % of mice with 100% inhibition of deep vascular layer: 2.2%
  % of mice with >95% inhibition of deep vascular layer: 8.7%
[2]
  Percentage of retinas with 0-10% neovascular inhibition: 23.9%
  Percentage of retinas with 10-25% neovascular inhibition: 17.4%
  Percentage of retinas with 25-50% neovascular inhibition: 15.2%
  Percentage of retinas with 50-75% neovascular inhibition: 8.7%
  Percentage of retinas with 100% neovascular inhibition: 2.2%
  Percentage of retinas with >75% neovascular inhibition: 34.8%
  Percentage of retinas with >90% neovascular inhibition: 8.7%
[3]
  Percentage of retinas with 0-10% neovascular inhibition: 50%
  Percentage of retinas with 10-25% neovascular inhibition: 37.5%
  Percentage of retinas with 25-50% neovascular inhibition: 12.5%
  Percentage of retinas with 50-75% neovascular inhibition: 0%
  Percentage of retinas with 100% neovascular inhibition: 0%
  Percentage of retinas with >75% neovascular inhibition: 0%
  Percentage of retinas with >90% neovascular inhibition: 0%
Monotherapy at optimal dose
  retinas that developed a normal, complete deep vascular plexus: 24%
  retinas that exhibited over 75% inhibition: 35%
With increasing dosages, Examples 10 and 11
  efficacy at the 95-100% inhibition level: ≤ 50%
